Values quoted from earlier work, collected in PMC3196573.

What was measured:
ALK3 (Homo sapiens) = ALK3 (Homo sapiens) (UniProt P36894)
ALK6 (Homo sapiens) = ALK6 (Homo sapiens) (UniProt O00238)
Chain of UniProt O00238 (O00238 14-126): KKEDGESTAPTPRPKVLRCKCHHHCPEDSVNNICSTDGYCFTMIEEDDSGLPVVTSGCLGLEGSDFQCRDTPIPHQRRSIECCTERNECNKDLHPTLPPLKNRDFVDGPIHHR

Chain of UniProt P36894 (P36894 24-152): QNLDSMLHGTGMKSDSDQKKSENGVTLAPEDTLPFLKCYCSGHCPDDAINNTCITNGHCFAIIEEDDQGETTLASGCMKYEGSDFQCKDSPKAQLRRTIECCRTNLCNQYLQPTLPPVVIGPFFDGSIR

In the case of BMP2 (from UniProt P12643), the Kd (ALK3 (Homo sapiens)) is given as 0.9 nM and the Kd (ALK6 (Homo sapiens)) is given as 3.6 nM.
